# From article PMC3565064 (Analytical biochemistry, 2012)
# Ends that are not written are not given here. * marks the point of attachment. Fc = ferrocene monocarboxylic acid coupled as acyl group on the N-terminus, O=C([c-]1cccc1)*.[Fe+2].c1cc[cH-]c1
# B1: ferrocene-tagged β-sheet breaker peptide Fc-KLVFFK6 (peptide)
# peptide: Fc-KLVFFKKKKKK
# Biological target: amyloid beta peptide Aβ(1–42) (UniProt P05067 672-713)
# Experiment: differential pulse voltammetry of the ferrocene tag
binder,measurement,value
B1,t1/2 at [Fc-KLVFFK6]:[Aβ(1–42)] 1:0.25,1.29 h
same,t1/2 at [Fc-KLVFFK6]:[Aβ(1–42)] 1:0.5,1.35 h
same,t1/2 at [Fc-KLVFFK6]:[Aβ(1–42)] 1:1,1.53 h
same,t1/2 at [Fc-KLVFFK6]:[Aβ(1–42)] 1:2,1.13 h
same,t1/2 at [Fc-KLVFFK6]:[Aβ(1–42)] 1:4,1.02 h
